# From PMC6776994
# Legend:
# [1] = target: CCR5 chemokine receptor (human) (UniProt P51681); test: plasmonic metal-enhanced fluorescence imaging of cells
# [2] = target: CCR5 chemokine receptor (human) (UniProt P51681); test: flow cytometry on cells
# UniProt P51681, sequence (P51681 whole entry): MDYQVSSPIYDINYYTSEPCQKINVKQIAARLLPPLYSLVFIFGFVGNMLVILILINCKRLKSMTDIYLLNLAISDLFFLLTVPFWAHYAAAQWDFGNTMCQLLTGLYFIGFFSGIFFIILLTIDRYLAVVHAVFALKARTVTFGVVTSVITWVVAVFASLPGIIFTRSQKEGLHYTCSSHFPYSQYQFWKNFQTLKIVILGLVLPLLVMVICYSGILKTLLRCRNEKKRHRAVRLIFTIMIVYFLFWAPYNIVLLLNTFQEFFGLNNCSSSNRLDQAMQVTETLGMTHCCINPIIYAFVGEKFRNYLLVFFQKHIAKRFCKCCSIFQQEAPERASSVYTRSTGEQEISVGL
substance,measurement,setting,value
full length single chain (FLSC) IgG1 (Fc fusion),fold increase of CCR5 binding on MVC-treated against untreated cells,[1],1.65 fold
same,reduction in CCR5 intensity (staining by mAb 45531) after FLSC IgG1,[2],10%
